Results from patent publication US20040097586A1, “Anti-tumor compounds” (priority 2001, published 2004).
Peptide text beside a SMILES is read from it.

What was measured:
OF-1 mice = assay: Toxicity/procoagulant activity after intravenous injection; assay type: in vivo; conditions: intravenous administration; dose levels as low as
Method: N-D-Ala-D-Leu-D-Ala-D-Leu-DNR was injected in the lateral tail vein of OF-1 mice at different dose levels in order to determine the minimal dose that induces acute toxicity and kills the animals in less than an hour following the injection. Animals were injected with this dose level and sacrificed befor death resulting from the injection of the conjugate occurs. Organs and tissues were collected, fixed and prepared for histopathology.

[1] = assay type: in vitro ADME, human
Method: The stability of this prodrug in whole human blood was determined, and its activation into the DNR-D-tetrapeptide (or any other positively charged derivative) was checked after incubation in the presence of human cancer cells conditioned media. Breast (MCF-7, MDA-MB-231), colon (LS-174-T), prostate (LNCaP) and lung (COR-L23, NCl-H69) cancer cell lines were used. Metabolites were analyzed by reverse phase-high pressure liquid chromatography (RP-HPLC), and fluorescence detection was used to identify and quantify the DNR derivatives generated over time. […] This particular prodrug is suitable for the in vivo validation of the concept.

tumor-bearing mice = assay: Tissue distribution studies in tumor-bearing mice; assay type: in vivo; conditions: i.v., plasma and tissues, RP-HPLC
Method: Mice bearing the same tumor types used for efficacy studies were used. They were injected i.v. with the prodrug, and anesthetized at selected time points. Plasma and tissues (tumor, liver, kidney, spleen, heart, lung and skeletal muscle) were recovered, snap frozen in liquid nitrogen and stored at −80° C. The prodrug and its metabolites were then extracted and quantified by RP-HPLC with fluorescence detection.

enzyme X = conditions: cited from earlier work
[2] = Test of polycationic polymers as procoagulant; conditions: commercially available polymer
Method: An alternative to aggregation inducers to form the positively charged ‘particles’ responsible for coagulation is to use polymers such as poly-Lys. […] POIY-D-Lys of different size derivatized with D-amino acids, dipeptides, tripeptides or tetrapeptides on their terminal and side chain free amino groups were prepared (FIG. 5). Their toxicity and procoagulant activities were compared, and interesting candidates were used for the preparation of prodrugs (FIG. 5). N-succinyl-[…]-Ala-L-Leu-L-Ala-L-Leu or PEG-Ala-Leu-Ala-Leu prodrugs were prepared and compared in terms of efficacy and toxicity to the prodrugs based on aggregation inducers as described above. Alternatively, tests were performed using poly-D-Arg.

COc1cccc2c1C(=O)c1c(O)c3c(c(O)c1C2=O)C[C@@](O)(C(C)=O)C[C@@H]3O[C@H]1C[C@H](NC(=O)[C@@H](CC(C)C)NC(=O)[C@@H](C)NC(=O)[C@@H](CC(C)C)NC(=O)[C@@H](C)N)[C@H](O)[C@H](C)O1 [N-D-Ala-D-Leu-D-Ala-D-Leu-daunorubicin, N-D-Ala-D-Leu-D-Ala-D-Leu-DNR] (HELM PEPTIDE1{[dA].[dL].[dA].[dL].[COc1cccc2c1C(=O)c1c(O)c3c(c(O)c1C2=O)C[C@@](O)(C(C)=O)C[C@@H]3O[C@H]1C[C@H](N[*:1])[C@H](O)[C@H](C)O1]}$$$$V2.0)
dose level inducing disseminated intravascular blood clotting (OF-1 mice): 34.5 µmol/kg

COc1cccc2c1C(=O)c1c(O)c3c(c(O)c1C2=O)C[C@@](O)(C(=O)CO)C[C@@H]3O[C@H]1C[C@H](NC(=O)[C@@H](CC(C)C)NC(=O)[C@@H](C)NC(=O)[C@@H](CC(C)C)NC(=O)[C@@H](C)N)[C@H](O)[C@H](C)O1 [N-D-Ala-D-Leu-D-Ala-D-Leu-doxorubicin] (HELM PEPTIDE1{[dA].[dL].[dA].[dL].[COc1cccc2c1C(=O)c1c(O)c3c(c(O)c1C2=O)C[C@@](O)(C(=O)CO)C[C@@H]3O[C@H]1C[C@H](N[*:1])[C@H](O)[C@H](C)O1]}$$$$V2.0; N-terminus and C-terminus assumed)
dose level inducing disseminated intravascular blood clotting (OF-1 mice): 34.5 µmol/kg

N-mPEG350-[…]-Ala-L-Leu-L-Ala-L-Leu-D-Ala-D-Leu-D-Ala-D-Leu-DNR
metabolite formed upon incubation in cancer cells conditioned media [1]: yielded the positively-charged N-L-Leu-D-Ala-D-Leu-D-Ala-D-Leu-DNR derivative
stability in whole human blood [1]: relatively stable
tissue distribution: site of metabolite generation (tumor-bearing mice): generation of a positively-charged procoagulant metabolite specifically within the tumor

N-succinyl-[…]-Ala-L-Leu-L-Ala-L-Leu
substrate quality for enzyme X (enzyme X): optimal substrate

Poly-D-Lys
test as procoagulant polymer [2]: positively tested
